B1: SLC19A2 (parent)
chain: FASLRPSEPFLTPYLLGPDKNLTE
B2: POMT2 (parent)
chain: LRGGGQVLLGWTLHYFPFFLMGRV

Variants of: B1
Experiment: protein stability index of a GFP-peptide fusion (GPS, HEK-293T) (PSI 1-6); higher = more stable
Details: c terminus: a fixed tail appended
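Also: lentivirally expressed fusions sorted by FACS into six bins by GFP to DsRed ratio, PSI derived from sequencing read proportions per bin multiplied by bin number.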

Row | Variant | protein stability index
1 | FASLRPSEPFLTEYLLGPDKNLTE [P13E] | 1.95
2 | FASLRPSEPFLTPYLLGPDKSLTE [N21S] | 1.47
3 | FASLRPSEPFLTPYLLGPDKELTE [N21E] | 2.02
4 | FASLRPSEPFLTPYLLGPDKRLTE [N21R] | 1.95
5 | FASLRPGEPFLTPYLLGPDKNLTE [S7G] | 2.07
6 | FASLRPNEPFLTPYLLGPDKNLTE [S7N] | 1.9
7 | FASLRPVEPFLTPYLLGPDKNLTE [S7V] | 2.27
8 | FASLRPREPFLTPYLLGPDKNLTE [S7R] | 1.71
9 | FASLRPCEPFLTPYLLGPDKNLTE [S7C] | 2.28
10 | FASLRPIEPFLTPYLLGPDKNLTE [S7I] | 1.5
11 | FASLRPTEPFLTPYLLGPDKNLTE [S7T] | 1.75
12 | FASLRPDEPFLTPYLLGPDKNLTE [S7D] | 1.92
13 | FASLRPSEYFLTPYLLGPDKNLTE [P9Y] | 2.29
14 | FASLRPSEDFLTPYLLGPDKNLTE [P9D] | 2.85
15 | FASLRPSEEFLTPYLLGPDKNLTE [P9E] | 1.82
16 | FASLRPSECFLTPYLLGPDKNLTE [P9C] | 2.26
17 | FASLRPSEMFLTPYLLGPDKNLTE [P9M] | 2.37
18 | FASLRPSESFLTPYLLGPDKNLTE [P9S] | 1.61
19 | FASLRPSEGFLTPYLLGPDKNLTE [P9G] | 2.18
20 | FASLRPSEHFLTPYLLGPDKNLTE [P9H] | 1.67
21 | FASLRPSEQFLTPYLLGPDKNLTE [P9Q] | 1.98
22 | FASLRPSEVFLTPYLLGPDKNLTE [P9V] | 2.9
23 | FASLRPSEIFLTPYLLGPDKNLTE [P9I] | 1.77
24 | FASLRPSEPFLTPYLLGPFKNLTE [D19F] | 1.87
25 | FASLRPSEPFLTPYLLGPSKNLTE [D19S] | 2.5
26 | FASLRPSEPFLTPYLLGPYKNLTE [D19Y] | 2.89
27 | FASLRPSEPFLTPYLLGPEKNLTE [D19E] | 2.24

Row | Variant | protein stability index
28 | FASLRPSEPFLTPYLLGPIKNLTE [D19I] | 1.92
29 | FASLRPSEPFLTPYLLGPNKNLTE [D19N] | 1.46
30 | FASLRPSEPFLTPYLLGPCKNLTE [D19C] | 1.44
31 | FASLRPSEPFLTPYLLGPQKNLTE [D19Q] | 1.57
32 | FASLRPSEPFLTPYLLGPMKNLTE [D19M] | 2.1
33 | FASLRPSEPFLTPYLLGPPKNLTE [D19P] | 1.67
34 | FASLRPSEPFLTPYLLGPAKNLTE [D19A] | 1.56
35 | YASLRPSEPFLTPYLLGPDKNLTE [F1Y] | 1.5
36 | PASLRPSEPFLTPYLLGPDKNLTE [F1P] | 3.64
37 | LASLRPSEPFLTPYLLGPDKNLTE [F1L] | 2.93
38 | CASLRPSEPFLTPYLLGPDKNLTE [F1C] | 2.8
39 | FASLRPSEPFLTPTLLGPDKNLTE [Y14T] | 2.58
40 | FASLRPSEPFLTPCLLGPDKNLTE [Y14C] | 2.27
41 | FASLRPSEPFLTPALLGPDKNLTE [Y14A] | 2.42
42 | FASLRPSEPFLTPMLLGPDKNLTE [Y14M] | 2.6
43 | FASLRPSEPFLTPNLLGPDKNLTE [Y14N] | 3.22
44 | FASLRPSEPFLTPHLLGPDKNLTE [Y14H] | 2.57
45 | FASLRPSEPFLTPLLLGPDKNLTE [Y14L] | 2.06
46 | FASLRPSIPFLTPYLLGPDKNLTE [E8I] | 2.19
47 | FASLRPSPPFLTPYLLGPDKNLTE [E8P] | 2.12
48 | FASLRPSWPFLTPYLLGPDKNLTE [E8W] | 2.48
49 | FASLRPSVPFLTPYLLGPDKNLTE [E8V] | 2.14
50 | FASLRPSFPFLTPYLLGPDKNLTE [E8F] | 1.78
51 | FASLRPSTPFLTPYLLGPDKNLTE [E8T] | 1.81
52 | FASLRPSHPFLTPYLLGPDKNLTE [E8H] | 1.66
53 | FASLRPSMPFLTPYLLGPDKNLTE [E8M] | 1.88
54 | FASLRPSGPFLTPYLLGPDKNLTE [E8G] | 1.99

Row | Variant | protein stability index
55 | FASLRPSDPFLTPYLLGPDKNLTE [E8D] | 1.63
56 | FAGLRPSEPFLTPYLLGPDKNLTE [S3G] | 1.65
57 | FAALRPSEPFLTPYLLGPDKNLTE [S3A] | 1.59
58 | FACLRPSEPFLTPYLLGPDKNLTE [S3C] | 1.23
59 | FALLRPSEPFLTPYLLGPDKNLTE [S3L] | 1.76
60 | FAELRPSEPFLTPYLLGPDKNLTE [S3E] | 1.45
61 | FAILRPSEPFLTPYLLGPDKNLTE [S3I] | 1.69
62 | FAQLRPSEPFLTPYLLGPDKNLTE [S3Q] | 2.61
63 | FWSLRPSEPFLTPYLLGPDKNLTE [A2W] | 2.21
64 | FLSLRPSEPFLTPYLLGPDKNLTE [A2L] | 2.04
65 | FMSLRPSEPFLTPYLLGPDKNLTE [A2M] | 2.36
66 | FASLRPSEPFLTPYLLNPDKNLTE [G17N] | 2.06
67 | FASLRPSEPFLTPYLLAPDKNLTE [G17A] | 1.81
68 | FASLRPSEPFLTPYLLPPDKNLTE [G17P] | 2.62
69 | FASLRPSEPFLTPYLLSPDKNLTE [G17S] | 2.41
70 | FASLRPSEPFLTPYLLMPDKNLTE [G17M] | 1.7
71 | FASIRPSEPFLTPYLLGPDKNLTE [L4I] | 2.44
72 | FASRRPSEPFLTPYLLGPDKNLTE [L4R] | 2.24
73 | FASMRPSEPFLTPYLLGPDKNLTE [L4M] | 1.48
74 | FASNRPSEPFLTPYLLGPDKNLTE [L4N] | 1.74
75 | FASTRPSEPFLTPYLLGPDKNLTE [L4T] | 2.23
76 | FASSRPSEPFLTPYLLGPDKNLTE [L4S] | 1.61
77 | FASKRPSEPFLTPYLLGPDKNLTE [L4K] | 1.48
78 | FASVRPSEPFLTPYLLGPDKNLTE [L4V] | 1.86
79 | FASHRPSEPFLTPYLLGPDKNLTE [L4H] | 1.69
80 | FASPRPSEPFLTPYLLGPDKNLTE [L4P] | 2.98

Variants of: B2
Experiment: as above
Details: c terminus: a fixed tail appended

Row | Variant | protein stability index
81 | LRGGGQVLLGWTLHYFPFFLMGRC [V24C] | 1.83
82 | LRGGGQVLLGWTLHYFPFFLMGRH [V24H] | 3.69
83 | LRGGGQVLLGWTLHYFPFFLMGRQ [V24Q] | 2.04
84 | LRGGGQVLLGWTLHYFPFFLMGRA [V24A] | 1.72
85 | LRGGGQVLLGWTLHYFPFFLMGRR [V24R] | 3.15
86 | LRGGGQVLLGWTLHYFPFFLMGRY [V24Y] | 3.27
87 | LRGGGQVLLGWTLHYFPFFLMGRI [V24I] | 2.03
88 | LRGGGQVLLGWTLHYFPFFLMGSV [R23S] | 2.85
89 | LRGGGQVLLGWTLHYFPFFLMGIV [R23I] | 4.29
90 | LRGGGQVLLGWTLHYFPFFLMGEV [R23E] | 3.15
91 | LRGGGQVLLGWTLHYFPFFLMGTV [R23T] | 3.19
92 | LRGGGQVLLGWTLHYFPFFLMGWV [R23W] | 3.02
93 | LRGGGQVLLGWTLHYFPFFLMGDV [R23D] | 1.88
94 | LRGGGQVLLGWTLHYFPFFLMGYV [R23Y] | 1.9

From the supplement of paper PMC10567573
